*1 amine or outer side, *2 acyl side, *3 side chain or, on linkers, in order; H or OH if unused. Side-chain parts run from the residue outwards. [ ]: non-standard residue; d: D form. The star is where a group is joined. C20 diacid = O=C(O)CCCCCCCCCCCCCCCCCCC(=O)*; γGlu = O=C(O)[C@H](CCC(=O)[*:2])N[*:1]; AEEA = NCCOCCOCC(=O)O; Aib = CC(C)(N)C(=O)O
How the values were obtained:
[1] = target: human glucagon-like peptide 1 receptor (GLP-1 R) (human, UniProt P43220 24-463); experiment: cell-based or functional assay
[2] = target: T1, human GLP-2 receptor (hGLP2-R) (human, UniProt O95838 1-553); experiment: cell-based or functional assay
T1 sequence (looked up): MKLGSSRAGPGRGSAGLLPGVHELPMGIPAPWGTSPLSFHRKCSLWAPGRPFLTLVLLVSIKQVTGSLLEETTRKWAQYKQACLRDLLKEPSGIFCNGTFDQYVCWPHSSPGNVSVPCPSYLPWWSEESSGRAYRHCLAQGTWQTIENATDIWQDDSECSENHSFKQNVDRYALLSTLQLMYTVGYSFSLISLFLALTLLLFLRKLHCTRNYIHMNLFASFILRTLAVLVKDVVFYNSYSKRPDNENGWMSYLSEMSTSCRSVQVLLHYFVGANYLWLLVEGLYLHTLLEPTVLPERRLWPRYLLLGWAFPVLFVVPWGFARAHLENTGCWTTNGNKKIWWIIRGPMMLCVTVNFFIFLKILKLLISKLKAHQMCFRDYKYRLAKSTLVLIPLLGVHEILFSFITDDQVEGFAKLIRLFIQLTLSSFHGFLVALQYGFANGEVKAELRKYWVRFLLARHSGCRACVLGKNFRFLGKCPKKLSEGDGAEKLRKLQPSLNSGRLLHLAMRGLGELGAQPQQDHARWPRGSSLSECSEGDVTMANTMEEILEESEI

EC50 GLP-1 (nM); cAMP response [1]: 0.26 nM
EC50 GLP-2 (nM); cAMP response [2]: 0.38 nM
B1: Compound 46 (peptide)
peptide: H-H[Aib]EGTFTSELATILDEQAAK([AEEA-AEEA-γGlu-C20 diacid])DFIAWLIEHKITD-OH
SMILES: CC[C@H](C)[C@H](NC(=O)[C@H](Cc1ccccc1)NC(=O)[C@H](CC(=O)O)NC(=O)[C@H](CCCCNC(=O)COCCOCCNC(=O)COCCOCCNC(=O)CC[C@H](NC(=O)CCCCCCCCCCCCCCCCCCC(=O)O)C(=O)O)NC(=O)[C@H](C)NC(=O)[C@H](C)NC(=O)[C@H](CCC(N)=O)NC(=O)[C@H](CCC(=O)O)NC(=O)[C@H](CC(=O)O)NC(=O)[C@H](CC(C)C)NC(=O)[C@@H](NC(=O)[C@@H](NC(=O)[C@H](C)NC(=O)[C@H](CC(C)C)NC(=O)[C@H](CCC(=O)O)NC(=O)[C@H](CO)NC(=O)[C@@H](NC(=O)[C@H](Cc1ccccc1)NC(=O)[C@@H](NC(=O)CNC(=O)[C@H](CCC(=O)O)NC(=O)C(C)(C)NC(=O)[C@@H](N)Cc1c[nH]cn1)[C@@H](C)O)[C@@H](C)O)[C@@H](C)O)[C@@H](C)CC)C(=O)N[C@@H](C)C(=O)N[C@@H](Cc1c[nH]c2ccccc12)C(=O)N[C@@H](CC(C)C)C(=O)N[C@H](C(=O)N[C@@H](CCC(=O)O)C(=O)N[C@@H](Cc1c[nH]cn1)C(=O)N[C@@H](CCCCN)C(=O)N[C@H](C(=O)N[C@H](C(=O)N[C@@H](CC(=O)O)C(=O)O)[C@@H](C)O)[C@@H](C)CC)[C@@H](C)CC
